# Test results published in patent publication US20140057332A1, “GLUCO-OLIGOSACCHARIDE OXIDASES FROM ACREMONIUM STRICTUM AND USES THEREOF” (The Governing Council of the University of Toronto, priority 2011, published 2014).
# Positions count from the first letter of the chain named. Names may count otherwise.
# B1: Acremonium strictum gluco-oligosaccharide oxidase GOOX-VN variant 2 Y300N, SEQ ID NO. 7 (Sarocladium strictum; A38V/S388N/Y300N) (protein)
# chain: NSINACLAAADVEFHEEDSEGWEMDGTAFNLRVDYDPVAIAIPRSTEDIAAAVQCGLDAGVQISAKGGGHSYGSYGFGGEDGHLMLELDRMYRVSVDDDNVATIQGGARLGYTALELLDQGNRALTHGTCPAVGIGGHVLGGGYGFATHTHGLTLDWLVGATVVLADASIVHVSKTENADLFWALRGGGGGFAIVSEFEFNTFEAPEIITTYQVTTTWNRKQHVAGLKALQDWAENTMPRELSMRLEINANALNWEGNYFGNAKDLKKVLQPIMKKAGGKSTISKLVETDWYGQINTYLNGADLNITYNYDVHEYFYANSLTAPRLSDEAISAFVDYKFDNSSVRPGRGWWIQWDFHGGKNSALASHSNDETAYAHRDQLWLWQFYDNIYDYENNTSPYPESGFEFMQGFVATIEDTLPEDRKGKYFNYADTTLDKEEAQKLYWRGNLEKLQAIKAKYDPEDVFGNVVSVEPIA
# B2: Acremonium strictum gluco-oligosaccharide oxidase GOOX-VN variant 3 W351F, SEQ ID NO. 8 (Sarocladium strictum; A38V/S388N/W351F) (protein)
# chain: B1 chain with N300Y, W351F
# B3: W351A: GOOX-VN mutant with W351A substitution (protein)
# chain: B1 chain with N300Y, W351A
# B4: E247A: GOOX-VN mutant with E247A substitution (protein)
# chain: B1 chain with E247A, N300Y
# Legend:
# [1] = Effect of deglycosylation with PNGaseF on enzyme activity; type: biochemical; conditions: 10 mM maltose, 15 min at 37° C., duplicate; for Activity, Deglycosylated: deglycosylated with PNGaseF (native conditions); for Activity, Glycosylated: glycosylated enzyme
# Procedure: Approximately 2 μg of purified enzyme was treated with PNGaseF (New England Biolabs) using denaturing and native conditions. Samples that were deglycosylated using denaturing conditions were analysed by SDS PAGE, while samples deglycosylated using native conditions were used to evaluate the impact of glycosylation on enzyme activity. The activity of enzymes was measured on 10 mM maltose at 37° C. for 15 min. (Table 7). N-glycosylation was predicted by NetNGlyc (http://www.cbs.dtu.dk/services/NetNGlyc/) while O-glycosylation was predicted by OGPET (http://ogpet.utep.edu/OGPET/).
# [2] = Kinetic analyses, all tested substrates; type: biochemical; conditions: all tested monosaccharides and oligosaccharides
# Procedure: (§1) A chromogenic assay was used to measure hydrogen peroxide production (15). Reactions contained 0.1 mM 4aminoantipyrine (4AA), 1 mM phenol, 0.5 U horseradish peroxidase, 40 mM Tris-HCl (pH 8.0), and different substrates were initiated by adding 0.2 μg of enzymes to the 250 μL reaction mixture. The production of H2O2 was coupled to the oxidation of 4aminoantipyrine by horseradish peroxidase and detected at 500 nm. Reactions were incubated at 37° C. for 15 min to measure the specific activity of GOOX on 10 mM of monosaccharide or 1 mM of oligosaccharide.
# (§2) At least 12 substrate concentrations were included to obtain kinetic parameters for each substrate. Initial rates were obtained by measuring reaction products every 30 s for 15 min at 37° C. and pH 8.0, and kinetic parameters were calculated using the Michaelis-Menten equation (GraphPad Prism5 Software).
# [3] = Chromogenic H2O2 oxidase assay on mannose
# Procedure: as §1
# (§3) An additional eight mutations, identified as Y72F, Y72A, E247A, E314A, W351A, N388S, Q353N, Q384A, were created in GOOX-VN to assess the influence of these residues on the substrate selectivity of GOOX-VN. […] The specific activity of each mutant was then measured at 37° C. for 15 min using 10 mM mono-sugars and 1 mM oligosaccharides as performed for Y300A, Y300N, and W351F (Table 11).
# [4] = substrate: CC(=O)N[C@H]1C(O)O[C@H](CO)[C@@H](O)[C@@H]1O; assay: purified protein, by the assay type; conditions: other: 37° C., pH 8.0
# Procedure: as §1, §2
# [5] = substrate: OC1OC[C@@H](O)[C@H](O)[C@H]1O; assay: purified protein, by the assay type; conditions: other: 37° C., pH 8.0
# Procedure: as §1, §2
# [6] = substrate: OC1OC[C@@H](O[C@@H]2OC[C@@H](O)[C@H](O)[C@H]2O)[C@H](O)[C@H]1O; assay: purified protein, by the assay type; conditions: other: 37° C., pH 8.0
# Procedure: as §1, §2
# [7] = substrate: OC1OC[C@@H](O[C@@H]2OC[C@@H](O[C@@H]3OC[C@@H](O)[C@H](O)[C@H]3O)[C@H](O)[C@H]2O)[C@H](O)[C@H]1O; assay: purified protein, by the assay type; conditions: other: 37° C., pH 8.0
# Procedure: as §1, §2
# [8] = substrate: OC[C@H]1OC(O)[C@H](O)[C@@H](O)[C@@H]1O; assay: purified protein, by the assay type; conditions: other: 37° C., pH 8.0
# Procedure: as §1, §2
# [9] = substrate: OC[C@H]1O[C@@H](O[C@H]2[C@H](O)[C@@H](O)C(O)O[C@@H]2CO)[C@H](O)[C@@H](O)[C@@H]1O; assay: purified protein, by the assay type; conditions: other: 37° C., pH 8.0
# Procedure: as §1, §2
# [10] = substrate: OC[C@H]1O[C@@H](O[C@H]2[C@H](O)[C@@H](O)[C@H](O[C@H]3[C@H](O)[C@@H](O)C(O)O[C@@H]3CO)O[C@@H]2CO)[C@H](O)[C@@H](O)[C@@H]1O; assay: purified protein, by the assay type; conditions: other: 37° C., pH 8.0
# Procedure: as §1, §2
# [11] = substrate: OC[C@H]1O[C@H](O[C@H]2[C@H](O)[C@@H](O)C(O)O[C@@H]2CO)[C@H](O)[C@@H](O)[C@@H]1O; assay: purified protein, by the assay type; conditions: other: 37° C., pH 8.0
# Procedure: as §1, §2
# [12] = Chromogenic H2O2 oxidase assay / kinetic analysis on NAG; conditions: for Specific activity Defined substrate concentration: 10 mM NAG, 37° C., 15 min; for Specific activity From Vmax: substrate NAG
# Procedure: as §1, §2
# [13] = Chromogenic H2O2 oxidase assay / kinetic analysis on xylose; conditions: for Specific activity Defined substrate concentration: 10 mM xylose, 37° C., 15 min; for Specific activity From Vmax: substrate xylose
# Procedure: as §1, §2
# [14] = Chromogenic H2O2 oxidase assay / kinetic analysis on glucose; conditions: for Specific activity From Vmax: substrate glucose
# Procedure: as §1, §2
# [15] = Chromogenic H2O2 oxidase assay / kinetic analysis on maltose; conditions: for Specific activity Defined substrate concentration: 1 mM maltose, 37° C., 15 min; for Specific activity From Vmax: substrate maltose
# Procedure: as §1, §2
# [16] = Chromogenic H2O2 oxidase assay / kinetic analysis on galactose; conditions: for Specific activity From Vmax: substrate galactose
# Procedure: as §1, §2
# [17] = Chromogenic H2O2 oxidase assay / kinetic analysis on xylobiose; conditions: for Specific activity Defined substrate concentration / Specific Activity of Enzyme Variants: 1 mM xylobiose, 37° C., 15 min; for Specific activity From Vmax: substrate xylobiose
# Procedure: as §1, §2
# [18] = Chromogenic H2O2 oxidase assay / kinetic analysis on cellobiose; conditions: for Specific activity Defined substrate concentration / Specific Activity of Enzyme Variants: 1 mM cellobiose, 37° C., 15 min; for Specific activity From Vmax: substrate cellobiose
# Procedure: as §1, §2
# [19] = Chromogenic H2O2 oxidase assay / kinetic analysis on xylotriose; conditions: for Specific activity Defined substrate concentration / Specific Activity of Enzyme Variants: 1 mM xylotriose, 37° C., 15 min; for Specific activity From Vmax: substrate xylotriose
# Procedure: as §1, §2
# [20] = Chromogenic H2O2 oxidase assay / kinetic analysis on cellotriose; conditions: for Specific activity Defined substrate concentration / Specific Activity of Enzyme Variants: 1 mM cellotriose, 37° C., 15 min; for Specific activity From Vmax: substrate cellotriose
# [21] = substrate: OC[C@H]1OC(O)[C@H](O)[C@@H](O)[C@H]1O; assay: purified protein, by the assay type; conditions: other: 37° C., pH 8.0
# Procedure: as §1, §2
# [22] = Chromogenic H2O2 oxidase assay on xylohexaose; conditions: 1 mM xylohexaose; 37° C., 15 min
# Procedure: as §1, §3
# [23] = Chromogenic H2O2 oxidase assay on xylotetraose; conditions: 1 mM xylotetraose; 37° C., 15 min
# Procedure: as §1, §3
# [24] = Chromogenic H2O2 oxidase assay on xylopentaose; conditions: 1 mM xylopentaose; 37° C., 15 min
# Procedure: as §1, §3
# [25] = 10 mM galactose, 37° C., 15 min
molecule,measurement,setting,value
B1,"Activity, Deglycosylated",[1],2.78 nmol/min
same,"Activity, Glycosylated",[1],2.6 nmol/min
same,catalytic activity (kcat) relative to GOOX-VN,[2],approximately two times higher
same,activity on mannose (in words),[3],low activity
same,Specific activity Defined substrate concentration,"[3]; 10 mM mannose, 37° C., 15 min",0.19 µmol/mg/min
same,Km,[4],55.95 ± 1.93 mM
same,Km,[5],32.01 ± 1.67 mM
same,Km,[6],4.83 ± 0.17 mM
same,Km,[7],4.32 ± 0.25 mM
same,Km,[8],3.11 ± 0.12 mM
same,Km,[9],0.38 ± 0.02 mM
same,Km,[10],0.44 ± 0.01 mM
same,Km,[11],19.61 ± 0.66 mM
same,kcat,[11],10.4 ± 0.105 s⁻¹
same,kcat/Km,[11],530 ± 18.3 M⁻¹ s⁻¹
same,Specific activity Defined substrate concentration,[12],1.5 µmol/mg/min
same,Specific activity From Vmax,[12],11.22 µmol/mg/min
same,Specific activity Defined substrate concentration,[13],2.32 µmol/mg/min
same,Specific activity From Vmax,[13],11.48 µmol/mg/min
same,Specific activity Defined substrate concentration,"[14]; 10 mM glucose, 37° C., 15 min",8.32 µmol/mg/min
same,Specific activity From Vmax,[14],10.70 µmol/mg/min
same,Specific activity Defined substrate concentration,[15],0.49 µmol/mg/min
same,Specific activity From Vmax,[15],10.30 µmol/mg/min
same,Specific activity Defined substrate concentration,[16]; [25],0.95 µmol/mg/min
same,Specific activity From Vmax,[16],11.64 µmol/mg/min
same,Specific activity Defined substrate concentration,[17],1.83 µmol/mg/min
same,Specific activity From Vmax,[17],11.84 µmol/mg/min
same,Specific activity Defined substrate concentration,[18],8.15 µmol/mg/min
same,Specific activity From Vmax,[18],11.29 µmol/mg/min
same,Specific activity Defined substrate concentration,[19],2.00 µmol/mg/min
same,Specific activity From Vmax,[19],11.85 µmol/mg/min
same,Specific activity Defined substrate concentration,[20],6.90 µmol/mg/min
same,Specific activity From Vmax,[20],9.88 µmol/mg/min
B2,"Activity, Deglycosylated",[1],3.19 nmol/min
same,"Activity, Glycosylated",[1],3.13 nmol/min
same,Km,[6],0.35 ± 0.01 mM
same,kcat,[6],7.96 ± 0.0583 s⁻¹
same,kcat/Km,[6],23000 ± 683 M⁻¹ s⁻¹
same,Km,[7],0.31 ± 0.01 mM
same,kcat,[7],7.885 ± 0.0717 s⁻¹
same,kcat/Km,[7],25700 ± 867 M⁻¹ s⁻¹
same,Km,[8],31.05 ± 1.33 mM
same,Km,[21],36.12 ± 1.30 mM
same,Km,[9],0.08 ± 0.00 mM
same,kcat,[9],5.74 ± 0.0833 s⁻¹
same,kcat/Km,[9],69000 ± 1000 M⁻¹ s⁻¹
same,Km,[10],0.11 ± 0.01 mM
same,kcat,[10],5.25 ± 0.107 s⁻¹
same,kcat/Km,[10],47300 ± 4420 M⁻¹ s⁻¹
same,Km,[11],4.96 ± 0.23 mM
same,kcat,[11],5.38 ± 0.0733 s⁻¹
same,kcat/Km,[11],1080 ± 51.7 M⁻¹ s⁻¹
same,Specific activity Defined substrate concentration,[12],0.1 µmol/mg/min
same,Specific activity From Vmax,[12],7.71 µmol/mg/min
same,Specific activity Defined substrate concentration,[13],0.15 µmol/mg/min
same,Specific activity From Vmax,[13],4.57 µmol/mg/min
same,Specific activity Defined substrate concentration,"[14]; 10 mM glucose, 37° C., 15 min",1.31 µmol/mg/min
same,Specific activity From Vmax,[14],5.57 µmol/mg/min
same,Specific activity Defined substrate concentration,[15],0.84 µmol/mg/min
same,Specific activity From Vmax,[15],5.33 µmol/mg/min
same,Specific activity Defined substrate concentration,[16]; [25],1.30 µmol/mg/min
same,Specific activity From Vmax,[16],6.49 µmol/mg/min
same,Specific activity Defined substrate concentration,[17],5.93 µmol/mg/min
same,Specific activity From Vmax,[17],7.88 µmol/mg/min
same,Specific activity Defined substrate concentration,[18],5.10 µmol/mg/min
same,Specific activity From Vmax,[18],5.68 µmol/mg/min
same,Specific activity Defined substrate concentration,[19],5.95 µmol/mg/min
same,Specific activity From Vmax,[19],7.81 µmol/mg/min
same,Specific activity Defined substrate concentration,[20],4.62 µmol/mg/min
same,Specific activity From Vmax,[20],5.20 µmol/mg/min
B3,Specific Activity of Enzyme Variants,[22],0.5 µmol/min/mg
same,Specific Activity of Enzyme Variants,[23],0.3 µmol/min/mg
same,Specific Activity of Enzyme Variants,[24],0.3 µmol/min/mg
same,Specific Activity of Enzyme Variants,[16]; [25],0.3 µmol/min/mg
same,Specific Activity of Enzyme Variants,[17],0.1 µmol/min/mg
same,Specific Activity of Enzyme Variants,[18],0.6 µmol/min/mg
same,Specific Activity of Enzyme Variants,[19],0.1 µmol/min/mg
same,Specific Activity of Enzyme Variants,[20],1.1 µmol/min/mg
B4,Specific Activity of Enzyme Variants,[22],5.1 µmol/min/mg
same,Specific Activity of Enzyme Variants,[23],5.3 µmol/min/mg
same,Specific Activity of Enzyme Variants,[24],5.2 µmol/min/mg
same,Specific Activity of Enzyme Variants,"[14]; 10 mM glucose, 37° C., 15 min",0.4 µmol/min/mg
same,Specific Activity of Enzyme Variants,[17],4.2 µmol/min/mg
same,Specific Activity of Enzyme Variants,[18],2.2 µmol/min/mg
same,Specific Activity of Enzyme Variants,[19],3.5 µmol/min/mg
same,Specific Activity of Enzyme Variants,[20],2.7 µmol/min/mg
